# Data: the supplement of paper PMC10567573
# B1: TRIM43 (parent)
# chain: YQEIFQQLQRSWVKMDQKSKHLKE
# Variants of: B1
# Assay: protein stability index of a GFP-peptide fusion (GPS, HEK-293T) (PSI 1-6); higher = more stable
# Conditions: c terminus: a fixed tail appended
# 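Further: lentivirally expressed fusions sorted by FACS into six bins by GFP to DsRed ratio, PSI derived from sequencing read proportions per bin multiplied by bin number.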
row,Variant,protein stability index
1,YQESFQQLQRSWVKMDQKSKHLKE,1.94
2,YQEPFQQLQRSWVKMDQKSKHLKE,1.93
3,YQEHFQQLQRSWVKMDQKSKHLKE,1.85
4,YQECFQQLQRSWVKMDQKSKHLKE,1.44
5,YQEEFQQLQRSWVKMDQKSKHLKE,1.78
6,YQEAFQQLQRSWVKMDQKSKHLKE,1.98
7,YQEKFQQLQRSWVKMDQKSKHLKE,1.87
8,YQEYFQQLQRSWVKMDQKSKHLKE,1.5
9,YQETFQQLQRSWVKMDQKSKHLKE,1.96
10,YQEWFQQLQRSWVKMDQKSKHLKE,2.94
11,YQEVFQQLQRSWVKMDQKSKHLKE,2.16
12,YQEGFQQLQRSWVKMDQKSKHLKE,1.01
13,YQEDFQQLQRSWVKMDQKSKHLKE,1.47
14,YQEMFQQLQRSWVKMDQKSKHLKE,1.51
15,YQELFQQLQRSWVKMDQKSKHLKE,2.19
16,YQENFQQLQRSWVKMDQKSKHLKE,1.61
17,YQEQFQQLQRSWVKMDQKSKHLKE,1.85
18,YQEIFQQPQRSWVKMDQKSKHLKE,2.06
19,YQEIFQQIQRSWVKMDQKSKHLKE,1.97
20,YQEIFQQQQRSWVKMDQKSKHLKE,2.88
21,YQEIFQQAQRSWVKMDQKSKHLKE,2.78
22,YQEIFQQHQRSWVKMDQKSKHLKE,3.06
23,YQEIFQQMQRSWVKMDQKSKHLKE,2.66
24,YQEIFQQTQRSWVKMDQKSKHLKE,3.24

row,Variant,protein stability index
1,YQEIFQQSQRSWVKMDQKSKHLKE,2.58
2,YQEIFQQRQRSWVKMDQKSKHLKE,3.03
3,YQEIFQQVQRSWVKMDQKSKHLKE,2.09
4,YQEIFQQEQRSWVKMDQKSKHLKE,3.06
5,YQEIFQQFQRSWVKMDQKSKHLKE,2.62
6,YQEIFQQGQRSWVKMDQKSKHLKE,2.74
7,YQEIFQQKQRSWVKMDQKSKHLKE,3.1
8,YQEIFQQDQRSWVKMDQKSKHLKE,2.71
9,YQEIFQQNQRSWVKMDQKSKHLKE,2.87
10,YQEIFQQWQRSWVKMDQKSKHLKE,2.85
11,YQEIFQQYQRSWVKMDQKSKHLKE,2.66
12,YQEIFQQCQRSWVKMDQKSKHLKE,2.44
13,YQEIFQQLDRSWVKMDQKSKHLKE,2.6
14,YQEIFQQLPRSWVKMDQKSKHLKE,2.73
15,YQEIFQQLVRSWVKMDQKSKHLKE,1.88
16,YQEIFQQLTRSWVKMDQKSKHLKE,2.19
17,YQEIFQQLHRSWVKMDQKSKHLKE,1.95
18,YQEIFQQLYRSWVKMDQKSKHLKE,2.67
19,YQEIFQQLSRSWVKMDQKSKHLKE,2.58
20,YQEIFQQLMRSWVKMDQKSKHLKE,2.32
21,YQEIFQQLGRSWVKMDQKSKHLKE,2.59
22,YQEIFQQLARSWVKMDQKSKHLKE,1.83
23,YQEIFQQLIRSWVKMDQKSKHLKE,1.71
24,YQEIFQQLWRSWVKMDQKSKHLKE,2.39

row,Variant,protein stability index
1,YQEIFQQLRRSWVKMDQKSKHLKE,3.11
2,YQEIFQQLCRSWVKMDQKSKHLKE,1.4
3,YQEIFQQLNRSWVKMDQKSKHLKE,2.25
4,YQEIFQQLERSWVKMDQKSKHLKE,2.72
5,YQEIFQQLLRSWVKMDQKSKHLKE,1.83
6,YQEIFQQLFRSWVKMDQKSKHLKE,2.23
7,YQEIFQQLKRSWVKMDQKSKHLKE,1.88
8,YQEIWQQLQRSWVKMDQKSKHLKE,2.19
9,YQEIPQQLQRSWVKMDQKSKHLKE,2.79
10,YQEIDQQLQRSWVKMDQKSKHLKE,4.05
11,YQEIRQQLQRSWVKMDQKSKHLKE,3.15
12,YQEIKQQLQRSWVKMDQKSKHLKE,3.17
13,YQEIVQQLQRSWVKMDQKSKHLKE,2.82
14,YQEIMQQLQRSWVKMDQKSKHLKE,2.22
15,YQEIHQQLQRSWVKMDQKSKHLKE,3.65
16,YQEINQQLQRSWVKMDQKSKHLKE,3.47
17,YQEIYQQLQRSWVKMDQKSKHLKE,2.57
18,YQEISQQLQRSWVKMDQKSKHLKE,3.39
19,YQEIEQQLQRSWVKMDQKSKHLKE,4.52
20,YQEIQQQLQRSWVKMDQKSKHLKE,3.7
21,YQEIIQQLQRSWVKMDQKSKHLKE,1.7
22,YQEIGQQLQRSWVKMDQKSKHLKE,3.31
23,YQEIAQQLQRSWVKMDQKSKHLKE,2.94
24,YQEITQQLQRSWVKMDQKSKHLKE,3.29

row,Variant,protein stability index
1,YQEICQQLQRSWVKMDQKSKHLKE,2.69
2,YQEILQQLQRSWVKMDQKSKHLKE,2.65
3,YQEIFQQLQRSAVKMDQKSKHLKE,3.07
4,YQEIFQQLQRSCVKMDQKSKHLKE,2.34
5,YQEIFQQLQRIWVKMDQKSKHLKE,2.57
6,YQEIFQQLQRNWVKMDQKSKHLKE,2.73
7,YQEIFQQLQRTWVKMDQKSKHLKE,1.81
8,YQEIFQQLQRCWVKMDQKSKHLKE,1.97
9,YQEIFQQLQRHWVKMDQKSKHLKE,2.18
10,YQEIFQQLQRMWVKMDQKSKHLKE,1.93
11,YQEIFQQLQRRWVKMDQKSKHLKE,1.82
12,YQEIFQQLQRQWVKMDQKSKHLKE,1.8
13,YQEIFQQLQRLWVKMDQKSKHLKE,2.21
14,YQEIFQQLQRPWVKMDQKSKHLKE,2.3
15,YQEIFQQLQRWWVKMDQKSKHLKE,1.56
16,YQEIFQQLQRKWVKMDQKSKHLKE,1.93
17,YQEIFQQLQRDWVKMDQKSKHLKE,2.68
18,YQEIFQQLQRGWVKMDQKSKHLKE,2.1
19,YQEIFQQLQREWVKMDQKSKHLKE,1.75
20,YQEIFQQLQRVWVKMDQKSKHLKE,1.63
21,YQEIFQQLQRAWVKMDQKSKHLKE,1.34
22,YQEIFQQLQRYWVKMDQKSKHLKE,2.65
